Laboratory results published in article PMC8417553 (2021).

B1: CCR3 (protein)
chain: MTTSLDTVETFGTTSYYDDVGLLCEKADTRALMAQFVPPLYSLVFTVGLLGNVVVVMILIKYRRLRIMTNIYLLNLAISDLLFLVTLPFWIHYVRGHNWVFGHGMCKLLSGFYHTGLYSEIFFIILLTIDRYLAIVHAVFALRARTVTFGVITSIVTWGLAVLAALPEFIFYETEELFEETLCSALYPEDTVYSWRHFHTLRMTIFCLVLPLLVMAICYTGIIKTLLRCPSKKKYKAIRLIFVIMAVFFIFWTPYNVAILLSSYQSILFGNDCERSKHLDLVMLVTEVIAYSHCCMNPVIYAFVGERFRKYLRHFFHRHLLMHLGRYIPFLPSEKLERTSSVSPSTAEPELSIVF
modifications: FITC-labeled CCL11, POPC SMALPs with 30% cholesterol
B2: CCR3 (protein)
chain: B1 chain
modifications: FITC-labeled CCL11, proteoliposomes with 60% cholesterol
B3: CCR3 (protein)
chain: B1 chain
modifications: FITC-labeled CCL11, proteoliposomes with 40% cholesterol

These binders were tested against CCL11 (eotaxin-1) 24-97 (Homo sapiens, UniProt P51671) (assay: fluorescence polarization).
CCL11 (eotaxin-1) 24-97, sequence (P51671 24-97): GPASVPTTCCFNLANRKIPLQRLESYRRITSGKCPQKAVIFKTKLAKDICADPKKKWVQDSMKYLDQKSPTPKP

Going from B1 to B2, the Kd falls from 30 nM to 11 nM (2.7-fold). The second binds more tightly here.

In the case of B3, the Kd is reported as 20 nM.
